Results reported in US20030134310A1.

B1: recombinant v-abl tyrosine kinase (New England Biolabs) (protein)
chain: YITPVNSLEKHSWYHGPVSRNAAEYLLSSGINGSFLVRESESSPGQRSISLRYEGRVYHYRINTASDGKLYVSSESRFNTLAELVHHHSTVADGLITTLHYPAPKRNKPTIYGVSPNYDKWEMERTDITMKHKLGGGQYGEVYEGVWKKYSLTVAVKTLKEDTMEVEEFLKEAAVMKEIKHPNLVQLLGVCTREPPFYIITEFMTYGNLLDYLRECNRQEVSAVVLLYMATQISSAMEYLEKKNFIHRDLAARNCLVGENHLVKVADFGLSRLMTGDTYTAHAGAKFPIKWTAPESLAYNKFSIKSDVWAFGVLLWEIATYGMSPYPGIDLSQVYELLEKDYRMERPEGCPEKVYELMRACWQWNPSDRPSFAEIHQAFETMFQESSISDEVEKELGKRG
B2: ZAP 70 kinase (protein)
chain: MPDPAAHLPFFYGSISRAEAEEHLKLAGMADGLFLLRQCLRSLGGYVLSLVHDVRFHHFPIERQLNGTYAIAGGKAHCGPAELCEFYSRDPDGLPCNLRKPCNRPSGLEPQPGVFDCLRDAMVRDYVRQTWKLEGEALEQAIISQAPQVEKLIATTAHERMPWYHSSLTREEAERKLYSGAQTDGKFLLRPRKEQGTYALSLIYGKTVYHYLISQDKAGKYCIPEGTKFDTLWQLVEYLKLKADGLIYCLKEACPNSSASNASGAAAPTLPAHPSTLTHPQRRIDTLNSDGYTPEPARITSPDKPRPMPMDTSVYESPYSDPEELKDKKLFLKRDNLLIADIELGCGNFGSVRQGVYRMRKKQIDVAIKVLKQGTEKADTEEMMREAQIMHQLDNPYIVRLIGVCQAEALMLVMEMAGGGPLHKFLVGKREEIPVSNVAELLHQVSMGMKYLEEKNFVHRDLAARNVLLVNRHYAKISDFGLSKALGADDSYYTARSAGKWPLKWYAPECINFRKFSSRSDVWSYGVTMWEALSYGQKPYKKMKGPEVMAFIEQGKRMECPPECPPELYALMSDCWIYKWEDRPDFLTVEQRMRACYYSLASKVEGPPGSTQKAEAACA

What was measured:
[1] = biological target: control mRNA-protein fusion molecule containing an optimized v-abl phosphorylation site (…), phosphorylated by v-abl; assay: immunoprecipitation of the mRNA-peptide fusion with 4G10 after the v-abl kinase reaction
[2] = biological target: TC26 fragment of Shg (clone obtained in round five of the selection)
[3] = biological target: control peptides (r-series) containing the same amino acids as the test peptides, but in a scrambled order

Molecule | percent of fusion molecules immunoprecipitated [1] [%] | phosphorylation in vitro (full-length Shg protein) | phosphorylation of mutagenized TC26 peptides with [γ-32P]ATP [2] | v-abl kinase activity on 5 µM substrate EAIYAAPFAKKK [3]
4G10 anti-phosphotyrosine antibody (Upstate Biotechnology) | 3 |  |  | 
B1 |  | the full-length Shg protein was phosphorylated by both v-abl and ZAP 70 in vitro | only the first tyrosine is a substrate for v-abl | did not have a significant effect on v-abl kinase activity
B2 |  | the full-length Shg protein was phosphorylated by both v-abl and ZAP 70 in vitro |  | 
